From patent US20230390362A1, “USE OF TRIGONAL AGONIST HAVING ACTIVITIES TO ALL OF GLUCAGON, GLP-1, AND GIP RECEPTORS IN TREATMENT OF SEQUELAE FOLLOWING RESPIRATORY INFECTIOUS DISEASES” (HANMI PHARM. CO., LTD., priority 2020, published 2023)
Positions of bridges follow the written chain, without caps; N, C: chain ends. Non-standard residues stand in square brackets, D forms with d. No end group written: not given here. *: point of attachment. Acetyl(2-(4-imidazolyl)) = O=C(Cc1c[nH]cn1)*; Aib = CC(C)(N)C(=O)O

T1: human GIP receptor (human, UniProt P48546 22-466)
T1 sequence (looked up): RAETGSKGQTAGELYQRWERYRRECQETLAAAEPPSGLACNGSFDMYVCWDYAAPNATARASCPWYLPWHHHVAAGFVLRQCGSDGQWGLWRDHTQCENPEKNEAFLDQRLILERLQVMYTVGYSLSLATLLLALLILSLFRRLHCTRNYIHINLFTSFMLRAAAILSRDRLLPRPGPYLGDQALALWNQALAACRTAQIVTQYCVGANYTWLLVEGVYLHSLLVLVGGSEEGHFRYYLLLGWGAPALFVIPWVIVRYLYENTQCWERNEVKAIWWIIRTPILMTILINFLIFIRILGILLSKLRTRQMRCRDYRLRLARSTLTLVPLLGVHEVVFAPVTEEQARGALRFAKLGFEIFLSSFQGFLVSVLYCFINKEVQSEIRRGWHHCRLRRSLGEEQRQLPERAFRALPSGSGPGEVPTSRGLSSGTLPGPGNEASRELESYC


Each binder was assayed against human GLP-1 receptor (human, UniProt P43220 24-463) (assay: cell-based or functional assay).
For H[Aib]QGTFTSDYSKYLDEKRQKEFVNWLLAQC (bridge 16-20) [trigonal agonist of SEQ ID NO: 56], the “In vitro activity relative to native peptide (%), vs. GLP-1 (cAMP EC50)” value was 57.9%. In the case of Y[Aib]QGTFTSDYSKYLDERACKDFVQWLLDHHPSSGQPPPS (bridge 16-20) [trigonal agonist of SEQ ID NO: 71], the “In vitro activity relative to native peptide (%), vs. GLP-1 (cAMP EC50)” value is reported as 90.1%. With Y[Aib]QGTFTSDYSKYLDECAAKEFVQWLLDHHPSSGQPPPS (bridge 16-20) [trigonal agonist of SEQ ID NO: 64] the “In vitro activity relative to native peptide (%), vs. GLP-1 (cAMP EC50)” value was 64.6%. {Acetyl(2-(4-imidazolyl))}-[Aib]QGTFTSDYSICMDEKHQKDFVNWLLNTK (bridge 15-19) [trigonal agonist of SEQ ID NO: 59] was tested, and the “In vitro activity relative to native peptide (%), vs. GLP-1 (cAMP EC50)” value was 40.3%. With Y[Aib]QGTFTSDYSKYLDEKAAKEFVQWLLDHHPSSGQPPPSC (bridge 16-20) [trigonal agonist of SEQ ID NO: 75] the “In vitro activity relative to native peptide (%), vs. GLP-1 (cAMP EC50)” value was 35.1%. {Acetyl(2-(4-imidazolyl))}-[Aib]QGTFTSDKSKYLDERAAQDFVQWLLDGGPSSGAPPPS [trigonal agonist of SEQ ID NO: 62] was tested, and the “In vitro activity relative to native peptide (%), vs. GLP-1 (cAMP EC50)” value was 5.2%. For {Acetyl(2-(4-imidazolyl))}-[Aib]QGTFTSDYSKYLDECRAKEFVQWLLDHHPSSGQPPPS (bridge 15-19) [trigonal agonist of SEQ ID NO: 73], the “In vitro activity relative to native peptide (%), vs. GLP-1 (cAMP EC50)” value was 22.6%. For {Acetyl(2-(4-imidazolyl))}-[Aib]QGTFTSDYSIAMDEIACKDFVNWLLNTK (bridge 15-19) [trigonal agonist of SEQ ID NO: 61], the “In vitro activity relative to native peptide (%), vs. GLP-1 (cAMP EC50)” value was 59.8%. In the case of Y[Aib]QGTFTSDYSKYLDECRAKDFVQWLLDHHPSSGQPPPS (bridge 16-20) [trigonal agonist of SEQ ID NO: 66], the “In vitro activity relative to native peptide (%), vs. GLP-1 (cAMP EC50)” value is reported as 15.8%. H[Aib]QGTFTSDYSKCLDEKRAKEFVQWLLDHHPSSGQPPPS (bridge 16-20) [trigonal agonist of SEQ ID NO: 65] was tested, and the “In vitro activity relative to native peptide (%), vs. GLP-1 (cAMP EC50)” value was 95.4%. In the case of H[Aib]QGTFTSDYSIAMDEIHQKDFVNWLLNTC (bridge 16-20) [trigonal agonist of SEQ ID NO: 57], the “In vitro activity relative to native peptide (%), vs. GLP-1 (cAMP EC50)” value is reported as 11.7%. With Y[Aib]QGTFTSDYSKYLDECAAKDFVQWLLDHHPSSGQPPPS (bridge 16-20) [trigonal agonist of SEQ ID NO: 67] the “In vitro activity relative to native peptide (%), vs. GLP-1 (cAMP EC50)” value was 28.5%. With Y[Aib]QGTFTSDCSKYLDERAAKDFVQWLLDHHPSSGQPPPS (bridge 16-20) [trigonal agonist of SEQ ID NO: 72] the “In vitro activity relative to native peptide (%), vs. GLP-1 (cAMP EC50)” value was 11.5%. H[Aib]QGTFTSDVSKYLDGQAAKEFVAWLLKGC [trigonal agonist of SEQ ID NO: 7] was tested, and the “In vitro activity relative to native peptide (%), vs. GLP-1 (cAMP EC50)” value was 13.7%.

The binders below were run against human GCG receptor (human, UniProt P47871 26-477) (assay: cell-based or functional assay).
Chain of human GCG receptor (P47871 26-477): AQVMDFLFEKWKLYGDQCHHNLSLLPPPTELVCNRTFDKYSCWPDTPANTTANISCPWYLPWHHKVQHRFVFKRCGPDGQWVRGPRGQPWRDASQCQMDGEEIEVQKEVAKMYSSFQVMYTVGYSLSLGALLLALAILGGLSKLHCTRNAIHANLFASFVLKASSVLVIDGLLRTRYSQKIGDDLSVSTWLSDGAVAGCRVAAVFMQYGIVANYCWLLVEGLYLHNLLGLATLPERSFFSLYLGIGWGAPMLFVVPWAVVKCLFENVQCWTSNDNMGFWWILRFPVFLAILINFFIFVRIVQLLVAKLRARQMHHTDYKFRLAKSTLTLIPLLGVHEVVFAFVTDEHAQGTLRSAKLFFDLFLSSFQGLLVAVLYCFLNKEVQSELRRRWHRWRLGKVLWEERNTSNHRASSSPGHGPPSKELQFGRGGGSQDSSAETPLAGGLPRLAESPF
With H[Aib]QGTFTSDYSKYLDEKRQKEFVNWLLAQC (bridge 16-20) [trigonal agonist of SEQ ID NO: 56] the “In vitro activity relative to native peptide (%), vs. Glucagon (cAMP EC50)” value was 4.9%. Y[Aib]QGTFTSDYSKYLDERACKDFVQWLLDHHPSSGQPPPS (bridge 16-20) [trigonal agonist of SEQ ID NO: 71] was tested, and the “In vitro activity relative to native peptide (%), vs. Glucagon (cAMP EC50)” value was 12.7%. In the case of Y[Aib]QGTFTSDYSKYLDECAAKEFVQWLLDHHPSSGQPPPS (bridge 16-20) [trigonal agonist of SEQ ID NO: 64], the “In vitro activity relative to native peptide (%), vs. Glucagon (cAMP EC50)” value is reported as 60.1%. In the case of {Acetyl(2-(4-imidazolyl))}-[Aib]QGTFTSDYSICMDEKHQKDFVNWLLNTK (bridge 15-19) [trigonal agonist of SEQ ID NO: 59], the “In vitro activity relative to native peptide (%), vs. Glucagon (cAMP EC50)” value is reported as < 0.1%. In the case of Y[Aib]QGTFTSDYSKYLDEKAAKEFVQWLLDHHPSSGQPPPSC (bridge 16-20) [trigonal agonist of SEQ ID NO: 75], the “In vitro activity relative to native peptide (%), vs. Glucagon (cAMP EC50)” value is reported as 8.5%. In the case of {Acetyl(2-(4-imidazolyl))}-[Aib]QGTFTSDKSKYLDERAAQDFVQWLLDGGPSSGAPPPS [trigonal agonist of SEQ ID NO: 62], the “In vitro activity relative to native peptide (%), vs. Glucagon (cAMP EC50)” value is reported as < 0.1%. For {Acetyl(2-(4-imidazolyl))}-[Aib]QGTFTSDYSKYLDECRAKEFVQWLLDHHPSSGQPPPS (bridge 15-19) [trigonal agonist of SEQ ID NO: 73], the “In vitro activity relative to native peptide (%), vs. Glucagon (cAMP EC50)” value was 5.4%. In the case of {Acetyl(2-(4-imidazolyl))}-[Aib]QGTFTSDYSIAMDEIACKDFVNWLLNTK (bridge 15-19) [trigonal agonist of SEQ ID NO: 61], the “In vitro activity relative to native peptide (%), vs. Glucagon (cAMP EC50)” value is reported as < 0.1%. With Y[Aib]QGTFTSDYSKYLDECRAKDFVQWLLDHHPSSGQPPPS (bridge 16-20) [trigonal agonist of SEQ ID NO: 66] the “In vitro activity relative to native peptide (%), vs. Glucagon (cAMP EC50)” value was 172%. With H[Aib]QGTFTSDYSKCLDEKRAKEFVQWLLDHHPSSGQPPPS (bridge 16-20) [trigonal agonist of SEQ ID NO: 65] the “In vitro activity relative to native peptide (%), vs. Glucagon (cAMP EC50)” value was 25.2%. For H[Aib]QGTFTSDYSIAMDEIHQKDFVNWLLNTC (bridge 16-20) [trigonal agonist of SEQ ID NO: 57], the “In vitro activity relative to native peptide (%), vs. Glucagon (cAMP EC50)” value was < 0.1%. Y[Aib]QGTFTSDYSKYLDECAAKDFVQWLLDHHPSSGQPPPS (bridge 16-20) [trigonal agonist of SEQ ID NO: 67] was tested, and the “In vitro activity relative to native peptide (%), vs. Glucagon (cAMP EC50)” value was 46.2%. For Y[Aib]QGTFTSDCSKYLDERAAKDFVQWLLDHHPSSGQPPPS (bridge 16-20) [trigonal agonist of SEQ ID NO: 72], the “In vitro activity relative to native peptide (%), vs. Glucagon (cAMP EC50)” value was 1%. In the case of H[Aib]QGTFTSDVSKYLDGQAAKEFVAWLLKGC [trigonal agonist of SEQ ID NO: 7], the “In vitro activity relative to native peptide (%), vs. Glucagon (cAMP EC50)” value is reported as < 0.1%.

The binders below were run against T1, human GIP receptor (assay: cell-based or functional assay).
H[Aib]QGTFTSDYSKYLDEKRQKEFVNWLLAQC (bridge 16-20) [trigonal agonist of SEQ ID NO: 56] was tested, and the “In vitro activity relative to native peptide (%), vs. GIP (cAMP EC50)” value was 0.8%. For Y[Aib]QGTFTSDYSKYLDERACKDFVQWLLDHHPSSGQPPPS (bridge 16-20) [trigonal agonist of SEQ ID NO: 71], the “In vitro activity relative to native peptide (%), vs. GIP (cAMP EC50)” value was 94.7%. In the case of Y[Aib]QGTFTSDYSKYLDECAAKEFVQWLLDHHPSSGQPPPS (bridge 16-20) [trigonal agonist of SEQ ID NO: 64], the “In vitro activity relative to native peptide (%), vs. GIP (cAMP EC50)” value is reported as 92.9%. For {Acetyl(2-(4-imidazolyl))}-[Aib]QGTFTSDYSICMDEKHQKDFVNWLLNTK (bridge 15-19) [trigonal agonist of SEQ ID NO: 59], the “In vitro activity relative to native peptide (%), vs. GIP (cAMP EC50)” value was 4%. Y[Aib]QGTFTSDYSKYLDEKAAKEFVQWLLDHHPSSGQPPPSC (bridge 16-20) [trigonal agonist of SEQ ID NO: 75] was tested, and the “In vitro activity relative to native peptide (%), vs. GIP (cAMP EC50)” value was 18%. In the case of {Acetyl(2-(4-imidazolyl))}-[Aib]QGTFTSDKSKYLDERAAQDFVQWLLDGGPSSGAPPPS [trigonal agonist of SEQ ID NO: 62], the “In vitro activity relative to native peptide (%), vs. GIP (cAMP EC50)” value is reported as < 0.1%. With {Acetyl(2-(4-imidazolyl))}-[Aib]QGTFTSDYSKYLDECRAKEFVQWLLDHHPSSGQPPPS (bridge 15-19) [trigonal agonist of SEQ ID NO: 73] the “In vitro activity relative to native peptide (%), vs. GIP (cAMP EC50)” value was 3%. With {Acetyl(2-(4-imidazolyl))}-[Aib]QGTFTSDYSIAMDEIACKDFVNWLLNTK (bridge 15-19) [trigonal agonist of SEQ ID NO: 61] the “In vitro activity relative to native peptide (%), vs. GIP (cAMP EC50)” value was 2.8%. In the case of Y[Aib]QGTFTSDYSKYLDECRAKDFVQWLLDHHPSSGQPPPS (bridge 16-20) [trigonal agonist of SEQ ID NO: 66], the “In vitro activity relative to native peptide (%), vs. GIP (cAMP EC50)” value is reported as 17.2%. For H[Aib]QGTFTSDYSKCLDEKRAKEFVQWLLDHHPSSGQPPPS (bridge 16-20) [trigonal agonist of SEQ ID NO: 65], the “In vitro activity relative to native peptide (%), vs. GIP (cAMP EC50)” value was 11.6%. With H[Aib]QGTFTSDYSIAMDEIHQKDFVNWLLNTC (bridge 16-20) [trigonal agonist of SEQ ID NO: 57] the “In vitro activity relative to native peptide (%), vs. GIP (cAMP EC50)” value was 0.3%. For Y[Aib]QGTFTSDYSKYLDECAAKDFVQWLLDHHPSSGQPPPS (bridge 16-20) [trigonal agonist of SEQ ID NO: 67], the “In vitro activity relative to native peptide (%), vs. GIP (cAMP EC50)” value was 39.8%. In the case of Y[Aib]QGTFTSDCSKYLDERAAKDFVQWLLDHHPSSGQPPPS (bridge 16-20) [trigonal agonist of SEQ ID NO: 72], the “In vitro activity relative to native peptide (%), vs. GIP (cAMP EC50)” value is reported as 1.6%. With H[Aib]QGTFTSDVSKYLDGQAAKEFVAWLLKGC [trigonal agonist of SEQ ID NO: 7] the “In vitro activity relative to native peptide (%), vs. GIP (cAMP EC50)” value was < 0.1%.
